B1: GS730: dsRNA trigger targeting B. cinerea Bcsec15 (XM_024692064.1); trigger SEQ ID NO 19, RNA 31, reverse complement 43 (nucleic acid, listed as Botrytis cinerea)
sense: UCAACGCAGUCUCCAAAGCUUUGGAUGAAUUCGAUAACCCGGAUGUUAUUCUGCAAACCAAGAAUGUGAUAGCAUUGUUCAUCCAAACAAUGGAGGGUUGGGGAUAUUCAGUUGCCAUAUUAGAUGCUUAUGUGCUUAAGCUUUUCUAUAGAUAUGCUGAUUUGUUAAAACGGAAAUUCAGCACAGAUUUUCAACAGAUUGUGUCUACCGAUGAAUACAUGCCUAUGCCUGUCAAUAGCGAAGAAGACUUUGAUAAAAUCAUUCAAGUCAGUUGGUAUGUUCCGGACAGACCGAAAGAAGAAUACACAUUCCCCGGUGUAUUACCAUUCUCCCAGAUGUACCCAAUGUGCUGUAUAGAUAUCAGAAAUUUCCUGAAUCGAUUCUACUUCAUAAUGGAUGAUCAUUUUCAACAGCCAAACAUUAUUGAUGAGACACUUAAGAAGUCGAUAGAUGAGCUUCUGUCUGAGGAUAUUUGUGA
antisense: UCACAAAUAUCCUCAGACAGAAGCUCAUCUAUCGACUUCUUAAGUGUCUCAUCAAUAAUGUUUGGCUGUUGAAAAUGAUCAUCCAUUAUGAAGUAGAAUCGAUUCAGGAAAUUUCUGAUAUCUAUACAGCACAUUGGGUACAUCUGGGAGAAUGGUAAUACACCGGGGAAUGUGUAUUCUUCUUUCGGUCUGUCCGGAACAUACCAACUGACUUGAAUGAUUUUAUCAAAGUCUUCUUCGCUAUUGACAGGCAUAGGCAUGUAUUCAUCGGUAGACACAAUCUGUUGAAAAUCUGUGCUGAAUUUCCGUUUUAACAAAUCAGCAUAUCUAUAGAAAAGCUUAAGCACAUAAGCAUCUAAUAUGGCAACUGAAUAUCCCCAACCCUCCAUUGUUUGGAUGAACAAUGCUAUCACAUUCUUGGUUUGCAGAAUAACAUCCGGGUUAUCGAAUUCAUCCAAAGCUUUGGAGACUGCGUUGA
B2: GS2280: dsRNA trigger targeting B. cinerea Bcmcm4 (XM_024696090.1); trigger SEQ ID NO 21, RNA 33, reverse complement 45 (nucleic acid, listed as Botrytis cinerea)
sense: AAUGUCCUCGUCCGGUUUGUAAAUCUCCAAACUCCAUGCAGAUUGUACACAACAGGUCUGGAUUCAUGGAUAAGCAAGUUAUCAAGCUUCAAGAAACUCCAGAUUCCGUUCCUGCUGGUCAAACACCACAUUCCGUCUCGAUGUGUGCAUAUGAUGAGUUGGUGGAUCUGUGCAAAGCUGGUGACAGAGUUGAGAUUACUGGUAUCUUCAAAGCUAGUCCAGUUCGUGUCAAUCCUCGCCAAAGAACUCUCAAAAGCAUUUAUAAAACGUACAUCGACGUUUUACACAUUCAAAAGGUUGACAAGAAAAGAAUGGGAAUUGAUGCUUCGACCGUUGAGCAAGAAAUAUCCGAUCAGUUGACAGGCAACAUUGAAGAAACUAGAAAGGUUUCUGAAGAGGAGGAAGAAAAAAUCAGAGAAACCGCUGCAAGACCCGAUAUCUACGAACUUCUAUCUCGAUCCCUCGCACCUAGUAUUUUUGAGAUGGACGAUGUUAAGAAGGGUAUCUUGCUUCAAUUAUUUGGUGGAACUAACAAGUCUUUCGAAAAAGGAGGAAGUCCAAAAUACAGAGGAGAUAUCAAUAUUCUAUUGU
antisense: ACAAUAGAAUAUUGAUAUCUCCUCUGUAUUUUGGACUUCCUCCUUUUUCGAAAGACUUGUUAGUUCCACCAAAUAAUUGAAGCAAGAUACCCUUCUUAACAUCGUCCAUCUCAAAAAUACUAGGUGCGAGGGAUCGAGAUAGAAGUUCGUAGAUAUCGGGUCUUGCAGCGGUUUCUCUGAUUUUUUCUUCCUCCUCUUCAGAAACCUUUCUAGUUUCUUCAAUGUUGCCUGUCAACUGAUCGGAUAUUUCUUGCUCAACGGUCGAAGCAUCAAUUCCCAUUCUUUUCUUGUCAACCUUUUGAAUGUGUAAAACGUCGAUGUACGUUUUAUAAAUGCUUUUGAGAGUUCUUUGGCGAGGAUUGACACGAACUGGACUAGCUUUGAAGAUACCAGUAAUCUCAACUCUGUCACCAGCUUUGCACAGAUCCACCAACUCAUCAUAUGCACACAUCGAGACGGAAUGUGGUGUUUGACCAGCAGGAACGGAAUCUGGAGUUUCUUGAAGCUUGAUAACUUGCUUAUCCAUGAAUCCAGACCUGUUGUGUACAAUCUGCAUGGAGUUUGGAGAUUUACAAACCGGACGAGGACAUU

Columns and labels:
Botrytis [1] = test: Open-air field trials on grape (Example 4.2, AUDPC of % disease severity); format: in vivo, Botrytis cinerea; settings: for Disease compared with the biological standard program of Serenade and JMS Stylet Oil (AUDPC) / Disease caused by Botrytis compared to untreated check (AUDPC): both trials; for Disease caused by Botrytis compared to untreated check (AUDPC): FIGS. 7 and 8; for Disease compared with the chemical program of Miravis Prime and Switch (AUDPC): second trial
Method: RNAi compositions, each containing a dsRNA comprising a trigger sequence (GS730) described herein, were evaluated for ability to control Botrytis on grape in open-air field trials. Non-formulated and formulated compositions were tested. Non-formulated compositions were tank mixed with water and Silwet L-77 0.1% v/v. Formulated samples were formulated with RO water, propylene glycol, a linear alcohol ethoxylate, a lignosulfanate, sodium citrate dihydate, a polyacrylic acid polymer, two biocide compositions, anhydrous citric acid, and an antifoam, all of which are readily commercially available. Non-formulated and formulated GS 730 were each tested at concentrations of 50 g ai/ha and 100 g ai/ha. A standard biological program of Serenade 9.4 I/ha alternating with JMS Sylet Oil 1% v/v was used as a positive control. Chemical standards, Miravis Prime 392 g ai/ha ai and Switch 610 g ai/ha were applied to a second positive control group in alternating applications. An untreated group was used as a negative control
Positive controls were applied to grape plants at bloom, bunch closure, veraison, and 7-10 days before harvest. Test applications were made on the same timing as the positive controls with additional applications seven days after bloom, bunch closure, veraison, and 7-10 days before harvest. Disease state was evaluated over the course of three to four weeks, starting two days after the last application (Slide 3) or 18 days […] the last application. Percent Disease Severity was assessed and AUDPC was calculated in the same manner as noted in Example 4.1.

Botrytis cinerea conidia = test: In vitro liquid-based assay (fungal biomass, 96-well plates, Cytation 5); format: cell-based; settings: co-incubated with conidia for three days, vs untreated control
How it was run: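 Conidia (5000/mL stock) were co-incubated with dsRNA or control treatments in pH 6.0 minimal medium. Incubation ran 72 h at 23 °C, shaking at 120 rpm under continuous light. Fungal biomass was measured by brightfield imaging (8 slices per well, 2.5× lens) and expressed as average reduction versus control.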

Botrytis [2] = test: Open-air field trial on strawberry (Example 4.1, AUDPC of % disease severity); format: in vivo, Botrytis cinerea; settings: GS730 100 g ai/ha, FIG. 6
Method: RNAi compositions, each containing a dsRNA comprising a trigger sequence (GS349 or GS730) described herein were evaluated for ability to control botrytis on strawberry in open-air field trials. Non-formulated (dissolved in water) GS349 and GS730 were each tank mixed with water and the standard adjuvant Silwet L-77 0.1% v/v. GS349 was tested at concentrations of 25 grams of active ingredient per hectare (g ai/ha) and 50 g ai/ha and GS730 was tested at a concentration of 100 g ai/ha. Serenade ASO 85 g ai/ha, a standard biological fungicide, was used as a positive control. A second positive control group was treated with alternating applications of the chemical standards Teldor Plus 750 g ai/ha, Signum 600 g ai/ha, and Switch 500 g ai/ha. The trial also included an untreated group as a negative control.
Test compositions and positive controls were sprayed onto strawberry plants in 12 applications. Plants were observed beginning 14 days after the first application and disease progress was assessed by determining the percentage of surface area of fruit that was affected by the disease (% Disease Severity). Disease severity was plotted over the length of the trial observations and area under disease progress curve (AUDPC) was calculated in order to measure the cumulative effect of the various treatments across multiple assessments. Means were separated according to Fisher's LSD, alpha (p)≤0.05.

B. cinerea = test: Open-air field trial on snap bean (Example 4.3, AUDPC of % disease severity); format: in vivo, Botrytis cinerea; settings: Switch 525 g ai/ha, GS349 20 and 40, GS2280 10 and 40, GS2303 10, 20 and 40, GS2297 20 g ai/ha, FIG. 9
Method: RNAi compositions, each containing a dsRNA comprising a trigger sequence (GS349, GS2280, GS2303, or GS2297) described herein were evaluated for ability to control botrytis on snap bean in open-air filed trials. All test samples were formulated with RO water, propylene glycol, a linear alcohol ethoxylate, a lignosulfanate, sodium citrate dihydate, a polyacrylic acid polymer, two biocide compositions, anhydrous citric acid, and an antifoam, all of which are readily commercially available. Formulation samples were tank mixed with a standard adjuvant, the non-ionic surfactant, Activator 90 0.125%v/v. Compositions were tested at concentrations of 10, g ai/ha, 20 g ai/ha, and 40 g ai/ha. Positive controls were a chemical standard, Switch 525 g ai/ha and a biological standard, Double Nickel LC 9.4 I/ha, both of which were also tank mixed with Activator 90 0.125% v/v. As above, an untreated check was used as a negative control.
Compositions were applied to snap bean plants using a small plot sprayer delivering 50 gallons of water per acre. A total of three applications were used for each sample and positive control. Disease state was evaluated beginning 8 days after the first application and ending 37 days after the third and final application. Percent Disease Severity was assessed and AUDPC was calculated in the same manner as noted in Example 4.1.

[3] = non-formulated, 50 and 100 g ai/ha

Row | Molecule | Disease compared with the biological standard program of Serenade and JMS Stylet Oil (AUDPC) (Botrytis [1]; formulated, 100 g ai/ha) | Disease caused by Botrytis compared to untreated check (AUDPC) (Botrytis [1]; formulated, 100 g ai/ha) | Disease compared with the chemical program of Miravis Prime and Switch (AUDPC) (Botrytis [1]; formulated, 100 g ai/ha) | Disease compared with the biological standard program of Serenade and JMS Stylet Oil (AUDPC) (Botrytis [1]; [3]) | Disease caused by Botrytis compared to untreated check (AUDPC) (Botrytis [1]; [3]) | Disease compared with the chemical program of Miravis Prime and Switch (AUDPC) (Botrytis [1]; [3]) | Average % Reduction in Biomass (Botrytis cinerea conidia; 25 ppm dsRNA) [%] | Average % Reduction in Biomass (Botrytis cinerea conidia; 150 ppm dsRNA) [%] | Disease control compared with the biological standard, Serenade (AUDPC) (Botrytis [2]; GS349 25 g ai/ha, Serenade ASO 85 g ai/ha) | Control of Botrytis vs. the untreated control (AUDPC) (Botrytis [2]; non-formulated, Silwet L-77 0.1% v/v, 12 applications, GS349 25 and 50 g ai/ha) | Disease state compared to treatment with the chemical standard (AUDPC) (B. cinerea)
1 | B1 | not statistically different | significantly reduced disease | comparable | not statistically different | significantly reduced disease | comparable | 21 | 45 | not significantly different | significant control | –
2 | B2 | – | – | – | – | – | – | 16 | 33 | – | – | no significant difference

From patent US20230189818A1, “RNA-BASED CONTROL OF BOTRYTIS” (priority 2021, published 2023)
